Experimental data taken from patent publication US7090834B1, “Vascular endothelial cell growth factor variants and uses thereof” (Genentech, Inc., priority 1999, dated 2006).
Positions count from the first letter of the chain named. Names and notes keep the numbering of the source.

B1: LK-VRB-2f (ligand, human, UniProt P15692-4 27-191, looked up)
chain: APMAEGGGQNHHEVVKFMDVYQRSYCHPIETLVDIFQEYPDEIEYIFKPSCVPLMRCGGCCNSEMRECVPTEESNITMQIMRIKPHQGQHIGEMSFLQHNKCECRPKKDRARQENPCGPCSERRKHLFVQDPQTCKCSCKNTDSRCKARQLELNERTCRCDKPRR
B2: LK-VRB-2s* (ligand, human, UniProt P15692-4 27-135, looked up)
chain: APMAEGGGQNHHEVVKFMDVYQRSYCHPIETLVDIFQEYPDEIEYIFKPSCVPLMRCGGCCNSEMRECVPTEESNITMQIMRIKPHQGQHIGEMSFLQHNKCECRPKKD
B3: LK-VRB-19s (ligand, human, UniProt P15692-4 27-135, looked up)
chain: B2 chain with M18E, Q22R, Y25S
notes: one of the two is probably misprinted
B4: LK-VRB-3s: VEGF (1–109) variant with F17I/M18E/Y21F/Q22K/Y25S (protein)
chain: B2 chain with F17I, M18E, Y21F, Q22K, Y25S, S63D, M65G, R66L
B5: LK-VRB-4s: VEGF (1–109) variant with F17I/M18E/Y21F/Q22E/Y25I (protein)
chain: B2 chain with F17I, M18E, Y21F, Q22E, Y25I, S63D, M65G, R66L
B6: LK-VRB-6s: VEGF (1–109) variant with D63S/G65A/L66T (protein)
chain: B2 chain with M65A, R66T
B7: LK-VRB-5s: VEGF (1–109) variant with D63S/L66R (protein)
chain: B2 chain with M65G
B8: LK-VRB-20s (ligand, human, UniProt P15692-4 27-135, looked up)
chain: B2 chain with Y21L, Q22R, Y25S
B9: LK-VRB-24s (ligand, human, UniProt P15692-4 27-135, looked up)
chain: B2 chain with M18E, Y21L, Q22R, Y25S, R66L
B10: LK-VRB-13s (ligand, human, UniProt P15692-4 27-135, looked up)
chain: B2 chain with M18E, Y25S
B11: LK-VRB-22s (ligand, human, UniProt P15692-4 27-135, looked up)
chain: B2 chain with M18E, Y21L, Q22R, Y25S, S63D, R66L
B12: LK-VRB-14s (ligand, human, UniProt P15692-4 27-135, looked up)
chain: B2 chain with Y21L, Q22R
B13: LK-VRB-11s (ligand, human, UniProt P15692-4 27-135, looked up)
chain: B2 chain with M18E, Y21L
B14: LK-VRB-15s (ligand, human, UniProt P15692-4 27-135, looked up)
chain: B2 chain with Y21L, Y25S
B15: LK-VRB-16s (ligand, human, UniProt P15692-4 27-135, looked up)
chain: B2 chain with Q22R, Y25S
B16: LK-VRB-23s (ligand, human, UniProt P15692-4 27-135, looked up)
chain: B2 chain with M18E, Y21L, Q22R, Y25S, S63D, M65G
B17: LK-VRB-25s (ligand, human, UniProt P15692-4 27-135, looked up)
chain: B2 chain with M18E, Y21L, Q22R, Y25S, M65G
B18: LK-VRB-12s (ligand, human, UniProt P15692-4 27-135, looked up)
chain: B2 chain with M18E, Q22R
B19: LK-VRB-21s (ligand, human, UniProt P15692-4 27-135, looked up)
chain: B2 chain with M18E, Y21L, Q22R, Y25S, M65G, R66L
B20: LK-VRB-10s (ligand, human, UniProt P15692-4 27-135, looked up)
chain: B2 chain with Y25S
B21: LK-VRB-26s (ligand, human, UniProt P15692-4 27-135, looked up)
chain: B2 chain with M18E, Y21L, Q22R, Y25S, S63D
B22: LK-VRB-17s (ligand)
chain: B2 chain with M18E, Y21L, Q22R
B23: LK-VRB-18s (ligand)
chain: B2 chain with M18E, Y21L, Y25S

molecular target: KDR receptor on HUVEC cells (human, UniProt P35968 20-1356); test: cell-based or functional assay; conditions: not given
Sequence (P35968 20-1356): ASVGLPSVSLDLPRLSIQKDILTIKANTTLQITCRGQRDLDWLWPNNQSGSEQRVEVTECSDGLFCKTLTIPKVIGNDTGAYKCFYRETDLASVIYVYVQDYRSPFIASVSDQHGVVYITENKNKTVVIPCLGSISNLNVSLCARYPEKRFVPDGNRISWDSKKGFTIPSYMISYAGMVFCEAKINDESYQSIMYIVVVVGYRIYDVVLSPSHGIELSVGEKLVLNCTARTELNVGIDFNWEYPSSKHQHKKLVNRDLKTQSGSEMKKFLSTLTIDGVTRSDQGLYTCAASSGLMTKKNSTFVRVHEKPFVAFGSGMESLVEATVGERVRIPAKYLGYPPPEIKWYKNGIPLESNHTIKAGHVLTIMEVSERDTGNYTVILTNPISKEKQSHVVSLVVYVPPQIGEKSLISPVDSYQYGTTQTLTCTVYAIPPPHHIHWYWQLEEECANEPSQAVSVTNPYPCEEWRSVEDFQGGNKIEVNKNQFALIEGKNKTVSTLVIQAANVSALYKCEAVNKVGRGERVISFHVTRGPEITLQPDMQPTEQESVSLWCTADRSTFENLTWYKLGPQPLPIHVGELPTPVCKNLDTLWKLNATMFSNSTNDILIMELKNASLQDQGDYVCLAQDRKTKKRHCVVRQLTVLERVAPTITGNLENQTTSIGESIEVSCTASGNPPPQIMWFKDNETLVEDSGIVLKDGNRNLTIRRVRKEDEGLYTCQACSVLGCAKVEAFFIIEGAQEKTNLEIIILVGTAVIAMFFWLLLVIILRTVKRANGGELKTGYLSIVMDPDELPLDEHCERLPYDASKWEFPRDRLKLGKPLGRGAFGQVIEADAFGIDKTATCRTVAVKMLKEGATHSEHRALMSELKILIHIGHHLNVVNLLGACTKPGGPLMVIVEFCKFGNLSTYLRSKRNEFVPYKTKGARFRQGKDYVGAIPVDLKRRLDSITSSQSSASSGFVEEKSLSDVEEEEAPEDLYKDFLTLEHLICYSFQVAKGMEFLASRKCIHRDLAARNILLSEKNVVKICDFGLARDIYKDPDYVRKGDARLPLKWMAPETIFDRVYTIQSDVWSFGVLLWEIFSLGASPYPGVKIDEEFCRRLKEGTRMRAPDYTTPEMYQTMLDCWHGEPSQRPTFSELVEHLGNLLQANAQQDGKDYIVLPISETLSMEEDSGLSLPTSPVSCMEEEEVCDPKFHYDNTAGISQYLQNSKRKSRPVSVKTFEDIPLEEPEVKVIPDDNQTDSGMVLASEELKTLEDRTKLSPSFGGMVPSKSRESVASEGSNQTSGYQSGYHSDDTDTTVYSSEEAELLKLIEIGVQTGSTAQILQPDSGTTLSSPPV

| Molecule | Endothelial Cell Proliferation Activity (HUVEC, 3H-thymidine) |
| --- | --- |
| B1 | 0.1 ratio to native VEGF (8-109) |
| B2 | 0.1 ratio to native VEGF (8-109) |

molecular target: KDR receptor (Homo sapiens, UniProt P35968); test: KDR receptor binding ELISA (inhibition of biotinylated native VEGF (8–109) binding); conditions: second figure of the cell, variant midpoint concentration divided by that of native VEGF
Description: (§1) Receptor binding assays were performed in 96-well immunoplates (Maxisorp, Nunc-Immunoplate, Nalge Nunc International, Rochester, N.Y.). Each well was coated with 100 μl of a solution containing 8 μg/ml of a monoclonal antibody to KDR known as MAKD5 (Genentech, South San Francisco, Calif.) in 50 mM carbonate buffer at pH 9.6 and incubated at 4° C. overnight. The supernatant was discarded, the wells were washed three times in washing buffer (0.05% Tween 20 in PBS), and the plate was blocked (150 μl per well) with block buffer (0.5% BSA, 0.01% thimerosal in PBS) at room temperature for one hour. The supernatant was discarded, and the wells were washed.
(§2) Aliquots of this mixture (100 μl) were added to the precoated microtiter wells and the plate was incubated for 1 hour at room temperature. […] The wells were then incubated with 3, 3′, 5,5′-tetramethyl benzidine (0.2 gram/liter; Kirkegaard & Perry Laboratories, Gaithersburg, Md.) for about 10 minutes at room temperature. Absorbance was read at 450 nm on a Vmax plate reader (Molecular Devices, Menlo Park, Calif.).
(§3) Titration curves were fit with a four-parameter nonlinear regression curve-fitting program (KaleidaGraph, Synergy Software, Reading, Pa.).

KDR receptor, sequence (P35968 20-327 limits assumed): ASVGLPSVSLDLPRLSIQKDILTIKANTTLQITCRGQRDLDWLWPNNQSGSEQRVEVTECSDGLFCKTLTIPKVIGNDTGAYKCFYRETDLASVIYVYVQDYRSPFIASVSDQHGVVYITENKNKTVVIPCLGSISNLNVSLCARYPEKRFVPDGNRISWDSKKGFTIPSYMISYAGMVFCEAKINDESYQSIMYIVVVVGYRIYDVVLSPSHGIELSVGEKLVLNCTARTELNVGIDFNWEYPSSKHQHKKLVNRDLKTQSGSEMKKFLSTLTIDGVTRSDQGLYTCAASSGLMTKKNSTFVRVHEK

| Molecule | Relative Binding Affinity, KDR Receptor: ratio to native VEGF (8–109) |
| --- | --- |
| B3 | 7 nM/7 |
| B4 | 1 nM/1 |
| B5 | 1 nM/1 |
| B6 | 0.5 nM/0.5 |
| B7 | 1 nM/1 |
| B8 | 2 nM/2 |
| B9 | 10 nM/10 |
| B10 | 14 nM/14 |
| B11 | 4 nM/4 |
| B12 | 0.5 nM/0.5 |
| B13 | 2 nM/2 |
| B14 | 2 nM/2 |
| B15 | 0.6 nM/0.6 |
| B16 | 11 nM/11 |
| B17 | 4 nM/4 |
| B18 | 0.4 nM/0.4 |
| B19 | 3 nM/3 |
| B20 | 0.5 nM/0.5 |
| B21 | 23 nM/23 |

molecular target: Flt-1 receptor; test: Flt-1 receptor binding ELISA (inhibition of biotinylated native VEGF binding to Flt-IgG); conditions: first figure of the cell, Flt-IgG, read-out: Relative Binding Affinity, FLT-1 Receptor: concentration at midpoint absorbance
Description: Receptor binding assays were performed in 96-well immunoplates (Maxisorp, Nunc-Immunoplate, Nalge Nunc International, Rochester, N.Y.). Each well was coated with 100 μl of a solution containing 2 μg/ml of rabbit F(ab′)2 to human IgG Fc (Jackson ImmunoResearch, West Grove, Pa.) in 50 mM carbonate buffer at pH 9.6 and incubated at 4° C. overnight. The supernatant was then discarded, the wells were washed three times in washing buffer (0.05% Tween 20 in PBS), and the plate was blocked (150 μl per well) with block buffer (0.5% BSA, 0.01% thimerosal in PBS) at room temperature for one hour. The supernatant was discarded, and the wells were washed.
The wells were filled with 100 μl of a solution containing Flt-IgG (a chimeric Flt-human Fc molecule) at 50 ng/ml in assay buffer (0.5% BSA, 0.05% Tween 20 in PBS). The wells were incubated at room temperature for 1 hour and then washed three times in wash buffer (0.05% Tween 20 in PBS).
as §2, with “the” for “this”, “2 hours” for “1 hour”, “g/liter,” for “gram/liter;”
as §3

Flt-1 receptor, sequence (P17948 27-327 limits assumed): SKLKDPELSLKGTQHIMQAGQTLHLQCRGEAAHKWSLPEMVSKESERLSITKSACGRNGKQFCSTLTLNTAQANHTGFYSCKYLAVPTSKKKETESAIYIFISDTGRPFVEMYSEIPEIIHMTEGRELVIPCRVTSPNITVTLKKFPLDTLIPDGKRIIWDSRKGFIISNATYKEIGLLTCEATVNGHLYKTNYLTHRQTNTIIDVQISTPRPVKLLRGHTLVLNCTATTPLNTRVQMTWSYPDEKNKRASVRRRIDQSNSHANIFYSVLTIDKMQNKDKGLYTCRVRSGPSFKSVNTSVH

| Molecule | IC50 [nM] |
| --- | --- |
| LK-VRB-2s*: VEGF (1–109) variant with D63S/G65M/L66R; KDR selective variant | > 400 |

same assay, conditions: second figure of the cell, fold less binding than native VEGF

| Molecule | Relative Binding Affinity, FLT-1 Receptor: ratio to native VEGF (8–109) |
| --- | --- |
| B3 | />35000 |
| B22 | />1900 |
| B8 | />10000 |
| B9 | />18000 |
| B10 | />14000 |
| B11 | />30 |
| B12 | />2900 |
| B13 | />14000 |
| B14 | />21000 |
| B15 | />1400 |
| B16 | />8500 |
| B17 | />12000 |
| B18 | />5600 |
| B19 | />5600 |
| B20 | />2400 |
| B21 | />25000 |

molecular target: T1, KDR (1-3) (UniProt P35968 20-327, limits assumed); test: competition ELISA vs biotinylated native VEGF (8-109) for KDR (1-3); conditions: not given
T1 construct: domain: domains 1 to 3; Genentech reagent; also called KDR (1-3) monomer; domains 1 to 3 of KDR
Description: as §1
as §2, with “3', 5,5'-tetramethyl” for “3′, 5,5′-tetramethyl”
as §3

T1 sequence (P35968 20-327 limits assumed): as the sequence (P35968 20-327 limits assumed) above

| Molecule | relative binding affinity (ratio to native VEGF (8-109)) [ratio] | IC50 [nM] |
| --- | --- | --- |
| B3 | 7 | – |
| B23 | 130 | 130 |
| B22 | 130 | – |
| B8 | 2 | – |
| B9 | 10 | – |
| B10 | 14 | – |
| B11 | 4 | – |
| B12 | 0.5 | – |
| B13 | 2 | – |
| B14 | 2 | – |
| B15 | 0.6 | – |
| B16 | 11 | – |
| B17 | 4 | – |
| B18 | 0.4 | – |
| B19 | 3 | – |
| B20 | 0.5 | – |
| B21 | 23 | – |
